The values below come from patent publication US20080274959A1, “Actinomadura Chromoprotein, Apoprotein and Gene Cluster” (Wyeth, priority 2004, published 2008).

In one series the test system is PC3. Description: Potency against human tumor cell lines: PC3. The format is cell-based. Particulars: PC3, Prostate.
The next series has as its system MCF-7. As to the kind of experiment: Potency against human tumor cell lines: MCF-7. The settings on record: MCF-7, Breast. The format is cell-based.
Another series deals with T1, Human PGP (MDR1) (Homo sapiens, UniProt P08183).
T1 construct: endogenous in cells; parental KB is P-GP negative
T1 sequence (P08183 whole entry): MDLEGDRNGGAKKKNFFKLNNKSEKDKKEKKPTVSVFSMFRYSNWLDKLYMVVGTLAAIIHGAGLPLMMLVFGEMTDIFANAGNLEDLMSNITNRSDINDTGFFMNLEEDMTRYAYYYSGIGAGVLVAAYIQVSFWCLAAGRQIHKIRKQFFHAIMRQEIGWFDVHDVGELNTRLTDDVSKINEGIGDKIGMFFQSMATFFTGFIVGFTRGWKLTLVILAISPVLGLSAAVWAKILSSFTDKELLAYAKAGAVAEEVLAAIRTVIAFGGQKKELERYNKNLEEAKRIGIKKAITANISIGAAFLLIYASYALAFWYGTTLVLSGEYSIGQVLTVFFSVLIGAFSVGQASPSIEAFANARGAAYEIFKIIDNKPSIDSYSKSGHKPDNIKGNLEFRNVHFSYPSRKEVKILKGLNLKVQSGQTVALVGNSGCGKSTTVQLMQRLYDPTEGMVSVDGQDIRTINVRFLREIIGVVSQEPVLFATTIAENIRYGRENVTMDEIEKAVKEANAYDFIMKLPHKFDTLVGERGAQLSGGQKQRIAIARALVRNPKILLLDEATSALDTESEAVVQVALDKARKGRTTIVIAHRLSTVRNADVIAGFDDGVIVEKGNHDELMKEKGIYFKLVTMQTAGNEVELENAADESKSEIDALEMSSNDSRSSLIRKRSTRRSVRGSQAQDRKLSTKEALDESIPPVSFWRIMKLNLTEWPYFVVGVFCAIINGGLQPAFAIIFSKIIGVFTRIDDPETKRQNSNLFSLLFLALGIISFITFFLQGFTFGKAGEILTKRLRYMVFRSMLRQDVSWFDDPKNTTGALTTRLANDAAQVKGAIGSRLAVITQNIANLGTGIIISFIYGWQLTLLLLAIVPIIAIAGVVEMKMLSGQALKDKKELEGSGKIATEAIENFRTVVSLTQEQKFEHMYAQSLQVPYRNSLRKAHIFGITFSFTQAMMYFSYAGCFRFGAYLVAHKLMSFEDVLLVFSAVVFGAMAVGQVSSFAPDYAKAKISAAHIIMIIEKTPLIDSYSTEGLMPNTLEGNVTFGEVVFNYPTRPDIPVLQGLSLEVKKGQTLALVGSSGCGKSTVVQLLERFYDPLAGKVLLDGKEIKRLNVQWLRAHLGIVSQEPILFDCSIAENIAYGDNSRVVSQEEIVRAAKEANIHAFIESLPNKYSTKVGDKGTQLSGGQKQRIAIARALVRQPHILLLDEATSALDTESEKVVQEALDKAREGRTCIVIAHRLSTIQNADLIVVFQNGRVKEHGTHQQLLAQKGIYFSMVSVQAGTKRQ
Description: Transport by P-GP (MDR-1). In kind it is cell-based. Particulars: judged from IC50 in KB, KB-8-5, KB-V-1 cells. The source says: Human PGP (MDR1) is an ATP-dependent efflux pump which is capable of transporting many drugs across cell membranes. High level expression of this protein has been linked to multiple drug resistance of tumors. […] The protein component of the chromoprotein probably protects the chromophore from drug efflux mediated by MDR1, and may be responsible for the beneficial antitumor effects in colon cell lines which often express MDR1.

For another series, the system named is histone H1 in HeLa cells. As to the kind of experiment: Digestion of histone H1 in HeLa cells, immunoblot. The format is cell-based. The settings on record: overnight at 37° C., anti-histone H1 immunoblot. As to the method:
To study whether the digestion of histones by the chromoprotein occurs in intact cells, HeLa cells were incubated with compounds overnight at 37° C. Cell lysates were analysed by SDS-PAGE and protein immunoblotting using anti-histone H1 antibodies (Santa Cruz Biotechnologies). […] This activity can contribute to antitumor effects by digesting histones in chromatin, making the DNA more accessible for cleavage. This appears to be a unique activity of the chromoprotein enediynes.

The test system of series [1] is LoVo, HCT116, HT29, LOX, HN5 and PC-3 tumors. Description: In vivo anti-tumor activity, subcutaneous human tumor xenografts. The arrangement: species or system athymic (nude) mice. The settings on record: intravenous in saline, further doses on days 5 and 9; all six xenograft models. As to the method:
The human tumor cell lines or fragments LoVo (colon cancer); HCT116 (colon); HT29 (colon); LOX (melanoma); HN5 (head & neck); and PC-3 (prostate) were implanted under the skin of athymic (nude) mice and allowed to form a tumor mass. When the tumors reached a size of 90-200 mg, the saline control vehicle or various concentrations of the Actinomadura sp. 21G792 chromoprotein formulated in saline was administered intravenously to the mice. The mice received subsequent doses on days 5 and 9 and the relative tumor growth was observed. The results are shown in the graphs in FIG. 24 and FIG. 25. Inhibition of tumor growth of up to 80% for mice receiving the chromoprotein was observed.
(In xenograft studies the graft and the host belong to different species.)

Series [2] has as its system HCT116 p21+/+ and −/− cells. As to the kind of experiment: COMET assay for DNA damage. In kind it is cell-based, human. Particulars: both p21-proficient and p21-deficient HCT116 cells. An excerpt: A COMET assay obtained from Trevigen, Inc. was used to detect DNA damage. HCT116 p21+/+ and −/− cells were subjected to various amounts of the 21G792 chromoprotein and mitoxantrone.

In the next series the test system is HT29. Description: Potency against human tumor cell lines: HT29. The format is cell-based. The settings on record: HT29, Colon.
The next series deals with BT474. As to the kind of experiment: Potency against human tumor cell lines: BT474. In kind it is cell-based. Particulars: BT474, Breast.
The next series has as its system HCT116. Description: Potency against human tumor cell lines: HCT116. In kind it is cell-based. The settings on record: HCT116, Colon. The protocol: The Actinomadura sp. 21G792 chromoprotein was added to an isogenic pair of cell lines (p21+/+ and p21−/−).

B1: Actinomadura sp. 21G792 chromoprotein: non-covalent complex of an apoprotein and a chromophore comprising a nine-membered enediyne, produced by Actinomadura sp. 21G792 (NRRL 30778) (protein)
chain: DTVTVNYDCVGYPSDIAVTIDAPATAGVGDTATFEVSSVVTTGAPQDLPAGEVVTDMAIVVGGAQSGTITASGLTNEATPAGQPVNMVGGEAQITFTSAGSVTFTPSTTTQVDNGAQCTVVGEAPVGATTVVS
Usually IC50 stands for the concentration that gives 50% inhibition. Turning to B1, the IC50 in the series with PC3 was determined as 22 µg/mL; in the series with MCF-7, 0.002 µg/mL; in the series with HT29, 0.008 µg/mL; with BT474, 0.047 µg/mL; with HCT116 it was 1 µg/mL. Besides, the “MDR1 substrate” value in the series with Human PGP (MDR1) is “poor MDR1 substrate”. The “histone H1 in cells after incubation” value in the series with histone H1 in HeLa cells is recorded as “reduced histone H1 in cells”. For the same molecule, the “Inhibition of tumor growth” value in series [1] was “up to 80%”. In series [2], the “concentration at which dose-dependent DNA strand breaks occur” value is over 100 ng/mL.
